The results in this text go back to patent publication US20030144205A1.

The test addresses SV40 large T antigen (pGADT7-SV40 large T antigen) (SV40) (UniProt P03070). Briefly: cell-based or functional assay.

SV40 large T antigen (pGADT7-SV40 large T antigen) (SV40), sequence (P03070 86-708 limits assumed): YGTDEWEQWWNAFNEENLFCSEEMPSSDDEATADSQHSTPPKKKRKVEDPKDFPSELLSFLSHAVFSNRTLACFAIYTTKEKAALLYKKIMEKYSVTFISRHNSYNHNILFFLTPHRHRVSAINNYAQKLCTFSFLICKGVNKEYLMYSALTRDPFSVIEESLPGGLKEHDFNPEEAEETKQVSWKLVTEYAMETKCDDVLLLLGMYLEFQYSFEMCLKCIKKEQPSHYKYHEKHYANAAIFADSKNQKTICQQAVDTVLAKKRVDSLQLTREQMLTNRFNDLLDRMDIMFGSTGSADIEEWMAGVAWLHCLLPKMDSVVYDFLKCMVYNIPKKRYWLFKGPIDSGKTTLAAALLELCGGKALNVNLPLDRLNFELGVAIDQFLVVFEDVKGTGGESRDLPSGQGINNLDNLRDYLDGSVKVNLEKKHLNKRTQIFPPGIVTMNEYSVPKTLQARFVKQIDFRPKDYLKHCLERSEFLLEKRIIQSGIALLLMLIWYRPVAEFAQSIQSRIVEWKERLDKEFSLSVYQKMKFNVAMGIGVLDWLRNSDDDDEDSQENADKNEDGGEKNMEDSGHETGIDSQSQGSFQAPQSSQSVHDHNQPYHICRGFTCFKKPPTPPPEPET

The substance “murine p53 (pGBKT7-murine p53) (from UniProt P02340 72-390)” showed a fold increase in fluorescence, an indication of yeast growth in selection media (Fluorescence(t40)/Fluorescence(t0)) of more than 5 fold.
